B1: tsLacBP7: lactate-binding protein from Thermus sp. (SEQ ID NO: 7, 21, 121) (protein)
chain: MQAPRFRWRIQSAWDAGTVGYTLFQRFAERVKELTDGQIEIQTFPAGAVVGTFDMFDAVKTGVLDGMHPFTLYWAGRMPVTAFLSSYPLGLDRPDQWETWYYALGGLDLARRAFEEQGLFYVGPVQHDYNLIHSKKPIKSFEDFKGVKLRVPGGMIADVFSAAGAATVLLPGGEVYPALERGVIDAADFVGPAVNYNLGFHQVTKYIIMGPPETPAIHQPVDLADITLNLSRWRAVPKNLQERFEAAVHEWSWIHYAGIQKANLETWPKYKAAGVQIIRLTTVDVRKFRRVAIPIWFKWAKQDKYAREAFASQLEYMKALGYVTDADVRGLSL
modifications: tsLacBP7 (with signal peptide replaced with M)
B2: ttLacBP1: lactate-binding protein from Thermus thermophilus, seed sequence (SEQ ID NO: 1, 15, 115) (protein, listed as Thermus thermophilus)
chain: MKRVSRRAFLRRLGVGVAATAAFSPLAVAQARRYRWRIQTAWDAGTVGYSLFQKFTERVKELTDGQLEVQPFPAGAVVGTFDMFDAVKTGVLDGMNPFTLYWAGRMPVTAFLSSYALGLDRPDQWETWFYSLGGLDIARRAFAEQGLFYVGPVQHDLNIIHSKKPIRRFEDFKGVKLRVPGGMIAEVFAAAGASTVLLPGGEVYPALERGVIDAADFVGPAVNYNLGFHQVAKYIIMGPPETPAIHQPVDLMDFTINLNRWRSLPKPLQERFIAAVHEYSWIHYAGIQKANLEAWPKYRQAGVEVIRLSNEDVRKFRRLAIPIWFKWAKMDKYSREAFASQLEYMKGIGYVTDEELKGLSL
B3: fsLacBP13: protein from Flexistipes sinusarabici (SEQ ID NO: 13, 27, 127) (protein, listed as Flexistipes sinusarabici)
chain: MGMMKKLLYSLLIILLVASAGFTAEKKIRWKLAMTWGPTLHPLSDTAEHMAEIVKELSDGNFVINIDASNVHKAPFGIFDMVKLGQYEMGHTASYYYKGKNIAFLPLTTMPFGMTAPEQYAWFYYGGGLELMQEAYTKHGMLAFPGGNTGNQMGGWFTKEINSLDDLKGLKMRIPGFAGQIMSKLGVTVTNIPPGELYTALERGTVDAVEWTGPGMDINMGFHKIAKYYYTGWHEPGSEVEFLINEKEYNKLPEKYKKILKIAMKTAAYDMYIQSYEMNAEAWQQMKEKYPDIKVKVFPEEVLKEMKTAYDNLVASYEKESPMFKKIMESKRAYLDKVRDWTHISDYLYLKSTSESNLN
B4: Y187C (conjugate)
chain: MATTWKIQSVWDAGTVGYDLFKEWCDGMEEKTGGELKFTCFPAKAVAADNNGLFDAVRNGVLQGMNPFTLYWSGKIPASVFLSSYPAGPDQPHQWDTMFYSLGMLEKTREIYKKFGLFYVGPIQHDANIIHSKQPINSLDDLKGLKMRLPGGMVAEVFAKFGVAAVSLPGSDIFPALEKGTIDAADCVGPAVNWELGFSQVTKYILMGPPGIMSVYQPVDLMDLTVNLRAWNALDPKLQQIVEDEVRIYSQKHYLAIQKRNIEAMKKFEAAGTTVTRLSQEDLQEFRRAAIPIWYSWANKDEDAREIFDMQLEYMMNDTVGYITEDDIKGMN
modifications: conjugated fluorophore; msLacBP6 (with signal peptide replaced with M)
B5: pgLacBP10: protein from Polymorphum gilvum (SEQ ID NO: 10, 24, 124) (protein)
chain: MTEISRRGLLAGSVFGGVALAAPTVARAQEAVEWRMQALWDAGTTPFEFEKKFVERVGELTEGRFKITLYSAGQIVPANQAFDAVRSGAFEMMKTFDGYEAGKIPAFAFTSTIPFGFPQSDQYEAWFYELGGLDLAREAYAKGGLFYIAPTVYGEEPMHSTVKIESIADMAGKKGRFVGLASAVMADLGVAVSPLATAEVYTALEKGLIDFADRGDLTANYEAGLGEVAKFIILPGVHQPTTATSYVANQAAYQKLPDGFKAALAVAAREISGSLRQHILVQDMEVLTKYKDQGVEVVRLDAADIAAARAKAVESWEKATKGDELATRVLKGQVDFMTSLGLL
B6: psLacBP11: protein from Pseudomonas stuztzeri (SEQ ID NO: 11, 25, 125) (protein)
chain: MKRRHLFGAAALLATLALAGCKDEQSQAPNQQAAGEPAKTYHWKMVTAWPKNYPGLGTSAERLAERVNAMSGGRLTIKVYAAGELVPALEVFDAVSRGTAELGHGASYYWKGKVPTAQFFTSVPFGLSTSEMNAWLSKGGGQAFWDEAYAPFGVKPLVIGNTGMQMGGWYNKEINSLTDLKGLKIRMPGLGGEVLSRLGATTVNLPGGEVFTALQTGAIDATDWVSPYNDLAFGLHKAARYYYYPGWQEPQAVLELLINQKAFDSLPADLQAIVTEASLAASRDMHDDYVYNNALALEQLKQQGTELKRFPDEVLAAMREQSDLILGELAAQSELNGRIWASMKAFQAQVEPMHEISEKELYNWR
B7: msLacBP6: lactate-binding protein from Marinobacter sp. (SEQ ID NO: 6, 20, 120) (protein)
chain: MTDITCKIETKGSARRRGFLKTLAVSAAISATLLASSVQAATTWKIQSVWDAGTVGYDLFKEWCDGMEEKTGGELKFTCFPAKAVAADNNGLFDAVRNGVLQGMNPFTLYWSGKIPASVFLSSYPAGPDQPHQWDTMFYSLGMLEKTREIYKKFGLFYVGPIQHDANIIHSKQPINSLDDLKGLKMRLPGGMVAEVFAKFGVAAVSLPGSDIFPALEKGTIDAADYVGPAVNWELGFSQVTKYILMGPPGIMSVYQPVDLMDLTVNLRAWNALDPKLQQIVEDEVRIYSQKHYLAIQKRNIEAMKKFEAAGTTVTRLSQEDLQEFRRAAIPIWYSWANKDEDAREIFDMQLEYMMNDTVGYITEDDIKGMN
B8: adLacBP9: protein from Anaeromyxobacter dehalogenans (SEQ ID NO: 9, 23, 123) (protein)
chain: MKKTTSRSQPDTAPKASRRSFLKKAALGAAGVAAGAAAPTIHVAQAPITLRFQSTWPQKDIFHEFALDYAKKVNEMSGGRLKIEVLAAGSVVKAFDLLDAVSKGTLDGGHGVVAYWYGKNTALALWGSGPAFGMDPNMVLAWHHYGGGRQLLEEIYRSLNLDVVSLMYGPMPTQPLGWFKQKPIAKPDDMKGLKFRTVGLSIDIFNGLGAAVNALPGAEIVPAMDRGLLDAAEFNNASSDRVLGFPDVSKICMLQSFHQCSEQFEILFNGKRFQALPADLKSIISIAAQAASADMSWKAIDRYSSDYFEMRDKQGVKFYSTRPEILKRQLEIWDQVMEKRAAENPTFKKVLESQRRFAQRAARWQNDTNVDFKMAYNHFFGGKKKAT
B9: rsLacBP12: protein from Rhodobacter sphaeroides (SEQ ID NO: 12, 26, 126) (protein)
chain: MTAFEKKAAYSRRSFLRTGALAGGAAAGSVLAAPAVLAQAPLVMKMQTSWPASDIWMDFAREYVTRVEEMSGGRIKVDLLPAGAVVGAFQVMDAVHDGVIDASHSVSAYWYGKSKAASFFGTGPVFGGSATTMLGWFYQGGGQDLYRELTQDILGMNIVGFYGFPMPAQPFGWFKTEVNGVADIQGFKYRTVGLAADLLQAMGMSVAQLPGGEIVPAMERGVIDAFEFNNPSSDMRFGAQDVAKNYYLSSYHQASESFEYTFNRDFYEDLDPDLQAILKYAVEAASTSNTALALRQYSADLATLAAENGVAVHRTPKDILSGQLEAWDKLIVDLEADEFFKKVLDSQRAWVEQVSYYELMNAADLGLAYEHHFPGKLKL
modifications: Rhodobacter sphaeroides

Experiments:
[1] = Lactate-mediated fluorescence emission response of fluorescent conjugates (cysteine and fluorophore scan); format: biochemical; design: key to Response Acrylodan Shape / Response Badan Shape / Response Badan Intensity: m, monochromatic; d, dichromatic (i.e. spectral shape changes); 0, no change
From the text: Semi-synthetic FRSs can be engineered by site-specifically attaching thiol-reactive, environmentally sensitive fluorophores that respond to ligand-mediated conformational changes. Identification of FRS candidates that can be used for sensing applications comprises three steps: • 1. Cysteine scan. Mutant lactate-binding proteins containing single cysteines are constructed for site-specific attachment of thiol-reactive fluorophores. […] Candidate positions fall into three classes: endosteric, replacing a residue that contacts the ligand directly; peristeric, located at the rim of the binding site; allosteric (Marvin et al., 1997, Proc Natl Acad Sci USA, 94, 4366-71; Marvin, 1998, J Am Chem Soc, 120, 7-11), located outside the binding site at sites that undergo local structural changes in concert with the hinge-bending motion. • 2. Fluorophore screening. Thiol-reactive, environmentally sensitive fluorophores are attached to each cysteine mutant prepared in step 1. • 3. Evaluation of the lactate-mediated change of all the fluorescent conjugates prepared in step 2. Responses to ligand binding in which there is both a change in fluorescence emission intensity and spectral shape are essential for chemometric applications, because such changes enable ratiometric measurements. Changes in spectral shape typically are accompanied by a shift in the wavelength of the emission intensity maxima. Three classes of fluorescent responses are possible: • i. No response. • ii. Monochromatic response (emission intensity increases or decreases without a change in spectral shape) • iii. […] Hypsochromatic: emission intensity shifts to shorter wavelengths upon binding ligand (“blue shift”). • ii. Bathochromatic: emission intensity shifts to longer wavelengths upon binding ligand (“red shift”). • 4.
We constructed seventeen single cysteine mutants in msLacBP6, exploring one endosteric, fourteen peristeric, and two allosteric positions. Two dominant electronic transitions give rise to fluorescence emission in these fluorophores with maxima in the blue (<500 nm) and green (>500 nm) regions, respectively.

[2] = Thermal stability by SYPRO Orange thermal melt in a Roche LightCycler; format: physicochemical; conditions: for Thermostability apoTm: ligand-free protein, SYPRO Orange, Roche LightCycler
Protocol: The lactate-binding properties of these proteins were determined experimentally (Table 3). These experiments comprise four successive steps: • 1. Synthetic gene construction. The amino acid sequence of the homology leads are back translated into DNA sequences. […] The predicted gene sequences are assembled de novo from synthetic oligonucleotides. • 2. Heterologous protein expression of the homologues in E. coli.

[3] = Acrylodan conjugate of msLacBP6 cysteine mutant, response to lactate
[4] = Badan conjugate of msLacBP6 cysteine mutant, response to lactate

Row | Molecule | Thermostability apoTm [2] | further results
1 | B1 | >100 °C | fluorescence response to lactate ([1]; in words): strong dichromatic responses
2 | B2 | >100 °C | 
3 | B3 | 46 °C | 
4 | B4 |  | Response Acrylodan Intensity [1, 3]: +; Response Acrylodan Shape [1, 3]: d^f; Response Badan Intensity [1, 4]: 0; Response Badan Shape [1, 4]: d^f
5 | B5 | 49 °C | 
6 | B6 | 60 °C | 
7 | B7 | 70 °C | mid-point denaturation temperature [2]: 70 °C
8 | B8 | 48 °C | 
9 | B9 | 48 °C | 
